To fix the notation:
T1: biotinylated human DLL3 protein expressed as a human IgG1 fusion protein (human, UniProt Q9NYJ7 27-492, limits assumed, biotinylated)
T1 sequence: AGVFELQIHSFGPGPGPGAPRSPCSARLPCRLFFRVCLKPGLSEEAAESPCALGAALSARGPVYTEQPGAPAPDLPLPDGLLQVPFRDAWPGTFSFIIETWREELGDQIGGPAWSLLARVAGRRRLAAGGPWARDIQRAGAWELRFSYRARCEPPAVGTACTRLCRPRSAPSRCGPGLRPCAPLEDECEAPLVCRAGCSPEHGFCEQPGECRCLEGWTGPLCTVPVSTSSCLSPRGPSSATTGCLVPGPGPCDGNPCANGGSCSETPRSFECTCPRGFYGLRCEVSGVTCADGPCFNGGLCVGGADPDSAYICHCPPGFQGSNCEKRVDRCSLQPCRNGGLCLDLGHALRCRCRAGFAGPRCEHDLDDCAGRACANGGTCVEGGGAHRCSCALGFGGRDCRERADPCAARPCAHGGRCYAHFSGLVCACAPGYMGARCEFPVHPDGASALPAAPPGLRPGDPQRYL

B1: 2C06 anti-DLL3 trispecific protein (other)
chain: EVQLVESGGGLVQPGGSLTLSCVASGSTNSINAMGWYRRAPGKQRELVAGISSDGSKVYKDSVKGRFTISRDNAKNSVYLQMNSLRAEDTAVYYCYYYRTVSGSSMRYWGQGTLVTVSS
notes: not shown: linker 1808, anti-albumin sdAb, linker 1808, anti-CD3 fragment, His6 1819
B2: 2G08 anti-DLL3 trispecific protein (other)
chain: EVQLVESGGGLVQPGGSLTLSCVASGSTSYINAMGWYRRAPGKQRELVAGISSDGSKVYADSVKGRFTISRDNAKNSVYLQMNSLRAEDTAVYYCYYFRTVSGQSMGYWGQGTLVTVSS
notes: as for B1
B3: 2F09 anti-DLL3 trispecific protein (other)
chain: EVQLVESGGGLVQPGGSLTLSCVASGSTSSINAMAWYRRAPGKQRELVAGISSDGSKLYADSVKGRFTISRDNAKNSVYLQMNSLRAEDTAVYYCYYFRTVSGSSMRYWGQGTLVTVSS
notes: as for B1
B4: 2G07 anti-DLL3 trispecific protein (other)
chain: EVQLVESGGGLVQPGGSLTLSCVASGSTSSINAMAWYRRAPGKQRELVAGISSDGSKVYADSVKGRFTISRDNAKNSVYLQMNSLRAEDTAVYYCYYFRTVQGSSMRYWGQGTLVTVSS
notes: as for B1
B5: 2F07 anti-DLL3 trispecific protein (other)
chain: EVQLVESGGGLVQPGGSLTLSCVASGSTSSINAVGWYRRAPGKQRELVAGISSDGSSVYADSVKGRFTISRDNAKNSVYLQMNSLRAEDTAVYYCYYFRTVSTSSMRYWGQGTLVTVSS
notes: as for B1
B6: 2G03 anti-DLL3 trispecific protein (other)
chain: EVQLVESGGGLVQPGGSLTLSCVASGSTSSINAMGWYRRAPGKQRELVAGISSDGSLVYADSVKGRFTISRDNAKNSVYLQMNSLRAEDTAVYYCYYFRTVSGSSMRAWGQGTLVTVSS
notes: as for B1
B7: 2F06 anti-DLL3 trispecific protein (other)
chain: EVQLVESGGGLVQPGGSLTLSCVASGSTSSINAYGWYRRAPGKQRELVAGISSDGSAVYADSVKGRFTISRDNAKNSVYLQMNSLRAEDTAVYYCYYFRTHSGSSMRYWGQGTLVTVSS
notes: as for B1
B8: 2D011 anti-DLL3 trispecific protein (other)
chain: EVQLVESGGGLVQPGGSLTLSCVASGTTSSINAMGWYRRAPGKQRELVAGISSDGSKVYADSVKGRFTISRDNAKNSVYLQMNSLRAEDTAVYYCYYFRTVWGSSMRYWGQGTLVTVSS
notes: as for B1
B9: 2D06 anti-DLL3 trispecific protein (other)
chain: EVQLVESGGGLVQPGGSLTLSCVASGSTSSINAMGWYRRAPGKQRELVAGISSDGSKVYSDSVKGRFTISRDNAKNSVYLQMNSLRAEDTAVYYCYYFRTVSGSSSRYWGQGTLVTVSS
notes: as for B1
B10: 2E08 anti-DLL3 trispecific protein (other)
chain: EVQLVESGGGLVQPGGSLTLSCVASGSRSSINAMGWYRRAPGKQRELVAGISADGSKVYADSVKGRFTISRDNAKNSVYLQMNSLRAEDTAVYYCYYFRTQSGSSMRYWGQGTLVTVSS
notes: as for B1
B11: 2F08 anti-DLL3 trispecific protein (other)
chain: EVQLVESGGGLVQPGGSLTLSCVASGSKSSINAMGWYRRAPGKQRELPAGISSNGTKVYADSAKVRFTISRDNAKNSVYLQMNSLRAEDTAVYYCYYFRTVLGTSMRYWGQGTLVTVSS
notes: as for B1
B12: 2F03 anti-DLL3 trispecific protein (other)
chain: EVQLVESGGGLVQPGGSLTLSCVASGSTSSINAMAWYRRAPGKQRELAAGISSDNSKVYADSVKGRFTISRDNAKNSVYLQMNSLRAEDTAVYYCYYFRTVGGSSMRYWGQGTLVTVSS
notes: as for B1
B13: 2F02 anti-DLL3 trispecific protein (other)
chain: EVQLVESGGGLVQPGGSLTLSCVASGSTSSINAVGWYRRAPGKQRELVAGISSDGSKVYAGSVKGRFTISRDNAKNSVYLQMNSLRAEDTAVYYCYYFRTVSGSYMRYWGQGTLVTVSS
notes: as for B1
B14: 2D09 anti-DLL3 trispecific protein (other)
chain: EVQLVESGGGLVQPGGSLTLSCVASGTTSSINAMGWYRRAPGKQRELAAGISSDGSKVYNDSVKGRFTISRDNAKNSVYLQMNSLRAEDTAVYYCYYFRTVRGSSMRYWGQGTLVTVSS
notes: as for B1
B15: 2D012 anti-DLL3 trispecific protein (other)
chain: EVQLVESGGGLVQPGGSLTLSCVASGKTSSINAMGWYRRAPGKQRELVAGISSDGSKVYTDSVKGRFTISRDNAKNSVYLQMNSLRAEDTAVYYCYYFRTRSGSSMRYWGQGTLVTVSS
notes: as for B1
B16: 2D02 anti-DLL3 trispecific protein (other)
chain: EVQLVESGGGLVQPGGSLTLSCVASGSTSSINALGWYRRAPGKQRELVAGISSDGSLVYADSVKGRFTISRDNAKNSVYLQMNSLRAEDTAVYYCYYFRIVSGSSMRYWGQGTLVTVSS
notes: as for B1
B17: 2F01 anti-DLL3 trispecific protein (other)
chain: EVQLVESGGGLVQPGGSLTLSCVASGSTSSINAMGWYRRAPGKQRELVAGISSDGSKVYSDSVKGRFTISRDNAKNSVYLQMNSLRAEDTAVYYCYYFRLVSGSSMRYWGQGTLVTVSS
notes: as for B1
B18: 2C010 anti-DLL3 trispecific protein (other)
chain: EVQLVESGGGLVQPGGSLTLSCVASGSTSKINAMGWYRRAPGKQRELVAGISSDRSKVYADSVKGRFTISRDNAKNSVYLQMNSLRAEDTAVYYCYYFRTVAGSSMRYWGQGTLVTVSS
notes: as for B1
B19: 2C07 anti-DLL3 trispecific protein (other)
chain: EVQLVESGGGLVQPGGSLTLSCVASGSTSSINAMAWYRRAPGKQRELVAGISSDGSKVYADSVKGRFTISRDNAKNSVYLQMNSLRAEDTAVYYCYYFRSVSGSSMRYWGQGTLVTVSS
notes: as for B1
B20: 2C09 anti-DLL3 trispecific protein (other)
chain: EVQLVESGGGLVQPGGSLTLSCVPSGSTSNINAMGWYRRAPGKQRELPAGISSDGTKIYADSAKVPFTITRDNAKNSVYLQMNSLRAEDTAVYYCYYFRTVSGTSMRYWGQGTLVTVSS
notes: as for B1
B21: 2G04 anti-DLL3 trispecific protein (other)
chain: EVQLVESGGGLVQPGGSLTLSCVASGSTSSINAMGWYRRAPGKQRELVAGISSDGSLVYADSVKGRFTISRDNAKNSVYLQMNSLRAEDTAVYYCYYFRILSGSSMRYWGQGTLVTVSS
notes: as for B1
B22: 2D010 anti-DLL3 trispecific protein (other)
chain: EVQLVESGGGLVQPGGSLTLSCVASGSTSSINAMGWYRRAPGKQRELVAGISSDGSKVYADSVKGRFTISRDNAKNSVYLQMNSLRAEDTAVYYCYYFRTKSGSSMRYWGQGTLVTVSS
notes: as for B1
B23: 2E06 anti-DLL3 trispecific protein (other)
chain: EVQLVESGGGLVQPGGSLTLSCVASGSTSSINAMGWYRRAPGKQRELVAGISSDGSKVYASSVKGRFTISRDNAKNSVYLQMNSLRAEDTAVYYCYYFRTVRGSSMRYWGQGTLVTVSS
notes: as for B1
B24: 2G09 anti-DLL3 trispecific protein (other)
chain: EVQLVESGGGLVQPGGSLTLSCVASGSTSSINAMGWYRRAPGKQRELVAGVSSDGSKVYADSVKGRFTISRDNAKNSVYLQMNSLRAEDTAVYYCYYFRTVSGSSARYWGQGTLVTVSS
notes: as for B1
B25: 2D07 anti-DLL3 trispecific protein (other)
chain: EVQLVESGGGLVQPGGSLTLSCVASGSTSSINAVGWYRRAPGKQRELVAGISSDGTKVYRDSVKGRFTISRDNAKNSVYLQMNSLRAEDTAVYYCYYFRTVQGSSMRYWGQGTLVTVSS
notes: as for B1
B26: 2C08 anti-DLL3 trispecific protein (other)
chain: EVQLVESGGGLVQPGGSLTLSCVASGSTSRINAMGWYRRAPGKQRELVAGISSDGSKVYQDSVKGRFTISRDNAKNSVYLQMNSLRAEDTAVYYCYYFRRVSGSSMRYWGQGTLVTVSS
notes: as for B1
B27: 2E09 anti-DLL3 trispecific protein (other)
chain: EVQLVESGGGLVQPGGSLTLSCVASGSVSSINAMGWYRRAPGKQRELVAGISSDGSKVYASSAKGRFTISRDNAKNSVYLQMNSLRAEDTAVYYCYYFRTLSGSSMRYWGQGTLVTVSS
notes: as for B1
B28: 2D05 anti-DLL3 trispecific protein (other)
chain: EVQLVESGGGLVQPGGSLTLSCVASGSTSRINAMGWYRRAPGKQRELVAGISSDGSKVYADSVKGRFTISRDNAKNSVYLQMNSLRAEDTAVYYCYYFRTASGSSMRYWGQGTLVTVSS
notes: as for B1
B29: 2D04 anti-DLL3 trispecific protein (other)
chain: EVQLVESGGGLVQPGGSLTLSCVASGSTSSINAVGWYRRAPGKQRELVAGISSDGSKVYRDSVKGRFTISRDNAKNSVYLQMNSLRAEDTAVYYCYYFRTVQGSSMRYWGQGTLVTVSS
notes: as for B1
B30: 2D03 anti-DLL3 trispecific protein (other)
chain: EVQLVESGGGLVQPGGSLTLSCVASGKTSSINAMGWYRRAPGKQRELVAGISSDGSKVYADSVKGRFTISRDNAKNSVYLQMNSLRAEDTAVYYCYYFRTVSGVSMRYWGQGTLVTVSS
notes: as for B1

In patent US20240141072A1 (published 2024) one finds Kd data, which are given here for 30 molecules.

In this assay the target is T1, biotinylated human DLL3 protein …. The assay can be described thus: Octet BLI, single 50 nM. The procedure, abridged: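 Analyte: trispecific anti-DLL3 proteins in conditioned medium, concentration known; ligand: captured DLL3 fusion; output: binding affinity.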
On the technique in general: BLI is a label-free optical method that tracks binding on a fibre tip over time.
In turn, B1 yielded a Kd of 6.7 nM. To B2 belongs 4.1 nM; to B3, 6.5 nM; to B4, 6.5 nM.

The molecule B5 had a Kd of 8 nM. To B6 belongs 5.6 nM. To B7 belongs 10 nM; to B8, 5.4 nM. With B9 the figure was 6.6 nM; with B10, 17 nM; with B11, 20 nM.

The molecule B12 had a Kd of 5.9 nM. With B13 the figure was 9.6 nM; with B14, 8.2 nM. To B15 belongs 4.9 nM; to B16, 14 nM.

B17 registered a Kd of 9.2 nM. B18 showed a Kd of 7.6 nM. To B19 belongs 6.2 nM; to B20, 6.4 nM; to B21, 11 nM.

As to B22, binding was put at a Kd of 7.3 nM. With B23 the figure was 11 nM; with B24, 8 nM. With B25 the figure was 6 nM. With B26 the figure was 6.1 nM. In the case of B27, the Kd was 8.5 nM. To B28 belongs 8.3 nM; to B29, 6.2 nM. Molecule B30 came in with a Kd of 6.8 nM.

As a reminder, the Kd is a measure of binding affinity in units of concentration.
